Data from the supplement of paper PMC11246515.
± gives the standard deviation of the averaged measurements.

Experiment: total protein half-life in vivo (active degradation + dilution); higher = more stable protein
[1] = E. coli NCM3722 delta-clpP delta-lon delta-hslV, growth: N-lim chemostat, doubling time 6 h
[2] = E. coli NCM3722 delta-clpP, growth: N-lim chemostat, doubling time 6 h
[3] = E. coli NCM3722 delta-hslV, growth: N-lim chemostat, doubling time 6 h
[4] = E. coli NCM3722 delta-lon, growth: N-lim chemostat, doubling time 6 h
[5] = E. coli NCM3722 delta-smpB, growth: N-lim chemostat, doubling time 6 h
[6] = wild type E. coli NCM3722, growth: C-lim chemostat, doubling time 3 h
[7] = wild type E. coli NCM3722, growth: C-lim chemostat, doubling time 6 h
[8] = wild type E. coli NCM3722, growth: C-lim chemostat, doubling time 12 h
[9] = wild type E. coli NCM3722, growth: N-lim chemostat, doubling time 6 h
[10] = wild type E. coli NCM3722, growth: N-lim chemostat, doubling time 12 h
[11] = wild type E. coli NCM3722, growth: P-lim chemostat, doubling time 6 h
[12] = wild type E. coli NCM3722, growth: P-lim chemostat, doubling time 12 h

Sequence | total protein half-life in vivo [1] [h] | total protein half-life in vivo [2] [h] | total protein half-life in vivo [3] [h] | total protein half-life in vivo [4] [h] | total protein half-life in vivo [5] [h] | total protein half-life in vivo [6] [h] | total protein half-life in vivo [7] [h] | total protein half-life in vivo [8] [h] | total protein half-life in vivo [9] [h] | total protein half-life in vivo [10] [h] | total protein half-life in vivo [11] [h] | total protein half-life in vivo [12] [h]
MAVAANKRSVMTLFSGPTDIYSHQVRIVLAEKGVSFEIEHVEKDNPPQDLIDLNPNQSVPTLVDRELTLWESRIIMEYLDERFPHPPLMPVYPVARGESRLYMHRIEKDWYTLMNTIINGSASEADAARKQLREELLAIAPVFGQKPYFLSDEFSLVDCYLAPLLWRLPQLGIEFSGPGAKELKGYMTRVFERDSFLASLTEAEREMRLGRS [P0ACA3] | 5.94 ± 0.21 | 5.92 ± 0.064 | 5.87 ± 0.5 | 6.44 ± 0.27 | 5.54 ± 0.15 | 2.919 ± 0.029 | 5.9 ± 0.62 | 10.9 ± 0.67 | 5.8 ± 0.29 | 11.6 ± 0.58 | 5.85 ± 0.11 | 13.5 ± 1.2
MAVAMDNAILENILRQVRPLIGQGKVADYIPALATVDGSRLGIAICTVDGQLFQAGDAQERFSIQSISKVLSLVVAMRHYSEEEIWQRVGKDPSGSPFNSLVQLEMEQGIPRNPFINAGALVVCDMLQGRLSAPRQRMLEVVRGLSGVSDISYDTVVARSEFEHSARNAAIAWLMKSFGNFHHDVTTVLQNYFHYCALKMSCVELARTFVFLANQGKAIHIDEPVVTPMQARQINALMATSGMYQNAGEFAWRVGLPAKSGVGGGIVAIVPHEMAIAVWSPELDDAGNSLAGIAVLEQLTKQLGRSVY [P0A6W0] | 5.51 ± 0.69 | 6.48 ± 0.19 | 6.52 ± 0.92 | – | 6.07 ± 0.46 | 3.12 ± 0.28 | – | 12.8 ± 0.64 | 5.88 ± 1.1 | 12.2 ± 1.5 | 5.82 ± 0.85 | 13.1 ± 0.95
MAVEVKYVVIREGEEKMSFTSKKEADAYDKMLDTADLLDTWLTNSPVQMEDEQREALSLWLAEQKDVLSTILKTGKLPSPQVVGAESEEEDASHAA [P0ACY9] | 5.68 ± 0.58 | – | 0.932 ± 0.076 | 0.8842 ± 0.0032 | 2.19 ± 0.32 | 0.978 ± 0.016 | 1.17 ± 0.072 | 1.28 | 1.08 | 1.8 ± 0.069 | 0.976 ± 0.2 | 2.4
MAVSAKYDEFNHWWATEGDWVEEPNYRRNGMSGVQCVERNGKKLYVKRMTHHLFHSVRYPFGRPTIVREVAVIKELERAGVIVPKIVFGEAVKIEGEWRALLVTEDMAGFISIADWYAQHAVSPYSDEVRQAMLKAVALAFKKMHSINRQHGCCYVRHIYVKTEGNAEAGFLDLEKSRRRLRRDKAINHDFRQLEKYLEPIPKADWEQVKAYYYAM | 5.26 ± 0.28 | 1.09 | 3.57 | 1.15 ± 0.09 | 0.534 | – | – | – | 0.927 | – | 0.144 | –
MAVTKLVLVRHGESQWNKENRFTGWYDVDLSEKGVSEAKAAGKLLKEEGYSFDFAYTSVLKRAIHTLWNVLDELDQAWLPVEKSWKLNERHYGALQGLNKAETAEKYGDEQVKQWRRGFAVTPPELTKDDERYPGHDPRYAKLSEKELPLTESLALTIDRVIPYWNETILPRMKSGERVIIAAHGNSLRALVKYLDNMSEEEILELNIPTGVPLVYEFDENFKPLKRYYLGNADEIAAKAAAVANQGKAK | 5.09 ± 0.33 | 5.4 ± 0.96 | 5.11 ± 0.76 | 5.42 ± 0.82 | 4.7 ± 0.09 | 3.18 ± 0.098 | 6.37 ± 0.56 | 10.3 ± 0.34 | 4.85 ± 0.46 | 8.63 ± 0.17 | 6.02 ± 0.45 | 12 ± 0.62
MAYKHILIAVDLSPESKVLVEKAVSMARPYNAKVSLIHVDVNYSDLYTGLIDVNLGDMQKRISEETHHALTELSTNAGYPITETLSGSGDLGQVLVDAIKKYDMDLVVCGHHQDFWSKLMSSARQLINTVHVDMLIVPLRDEEE [P0AED0] | 3.96 | 4.94 ± 0.073 | 4.31 ± 0.27 | 4.3 ± 0.64 | 4.52 ± 0.15 | 3.34 ± 0.46 | 5.16 ± 0.1 | 10.7 ± 1.6 | 4.305 ± 0.0018 | – | 5.92 ± 0.084 | 9.86 ± 1.9
MAYLVAVTACVSGVAHTYMAAERLEKLCLLEKWGVSIETQGALGTENRLADEDIRRADVALLITDIELAGAERFEHCRYVQCSIYAFLREPQRVMSAVRKVLSAPQQTHLILE | 4.98 | – | – | – | – | – | – | – | – | – | – | –
